Our source for the Percentage of Positive Cells values is patent US20250361296A1.

Common to all, as to assay: flow cytometry, CHO-S cells expressing the target
(A flow cytometer gives signals particle by particle.)

In experiment [1] the target is Macaca fascicularis (crab-eating macaque) SIGLEC15 on CHO-S-fasSIGLEC15 cells (Macaca fascicularis (crab-eating macaque)).
Experiment [2] has as its target human SIGLEC15 on CHO-S-hSIGLEC15 cells (human) (UniProt Q6ZMC9).
Experiment [3] has as its target mouse SIGLEC15 on CHO-S-mSIGLEC15 cells (mouse).
Experiment [4] has as its target dog SIGLEC15 on CHO-S-dSIGLEC15 cells (dog).

Sequence of dog SIGLEC15 on CHO-S-dSIGLEC15 cells (dog) (chain, as listed by the source limits assumed): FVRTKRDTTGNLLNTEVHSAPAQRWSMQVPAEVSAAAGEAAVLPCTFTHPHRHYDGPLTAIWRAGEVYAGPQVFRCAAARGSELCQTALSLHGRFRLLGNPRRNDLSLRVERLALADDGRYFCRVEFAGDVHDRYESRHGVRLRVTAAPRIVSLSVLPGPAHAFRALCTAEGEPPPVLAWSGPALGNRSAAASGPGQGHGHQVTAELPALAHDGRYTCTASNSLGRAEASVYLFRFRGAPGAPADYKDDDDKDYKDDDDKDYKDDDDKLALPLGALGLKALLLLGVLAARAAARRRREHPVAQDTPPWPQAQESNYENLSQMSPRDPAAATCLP
Sequence of mouse SIGLEC15 on CHO-S-mSIGLEC15 cells (mouse) (chain, as listed by the source limits assumed): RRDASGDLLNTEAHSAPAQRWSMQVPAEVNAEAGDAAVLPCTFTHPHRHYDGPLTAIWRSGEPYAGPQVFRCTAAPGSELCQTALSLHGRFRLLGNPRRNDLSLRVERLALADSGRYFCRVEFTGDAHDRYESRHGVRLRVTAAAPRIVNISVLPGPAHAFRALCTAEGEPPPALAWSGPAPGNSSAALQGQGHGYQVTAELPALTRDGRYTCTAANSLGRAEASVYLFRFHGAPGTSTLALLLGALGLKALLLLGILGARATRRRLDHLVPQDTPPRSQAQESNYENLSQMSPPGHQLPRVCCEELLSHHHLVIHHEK
Sequence of human SIGLEC15 on CHO-S-hSIGLEC15 cells (human) (Q6ZMC9 20-328 limits assumed): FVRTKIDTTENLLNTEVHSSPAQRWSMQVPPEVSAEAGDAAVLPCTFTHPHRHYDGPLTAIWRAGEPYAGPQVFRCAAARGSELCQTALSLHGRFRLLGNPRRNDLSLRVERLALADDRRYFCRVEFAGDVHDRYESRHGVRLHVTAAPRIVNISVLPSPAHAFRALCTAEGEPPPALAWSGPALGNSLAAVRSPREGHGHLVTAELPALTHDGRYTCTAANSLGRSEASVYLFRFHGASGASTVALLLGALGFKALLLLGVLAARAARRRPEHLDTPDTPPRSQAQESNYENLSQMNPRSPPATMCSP

Take NC: the Percentage of Positive Cells in experiment [1] is 0.2%; in experiment [2], 0.1%; in experiment [3] it was 0.1%; in experiment [4], 0.6%.

As for NC + secondary antibody, the Percentage of Positive Cells in experiment [1] is 0%; in experiment [2], 0%; in experiment [3] it was 0.3%; in experiment [4] it was 0.7%.
